Experimental data as given in US20210253718A1, “FRIZZLED5 PROTEIN-BINDING AGENTS” (Modmab Therapeutics Corporation, priority 2016, published 2021).
Residue numbers refer to the chain shown, from its start.

T1: FZD4 CRD (Homo sapiens, UniProt Q9ULV1)
T1 construct: E42-V167; GPI anchor signal (C); expressed in transfected cells; host or cells: CHO cells, lentiviral pLenti-puro
T1 sequence (Q9ULV1 42-167): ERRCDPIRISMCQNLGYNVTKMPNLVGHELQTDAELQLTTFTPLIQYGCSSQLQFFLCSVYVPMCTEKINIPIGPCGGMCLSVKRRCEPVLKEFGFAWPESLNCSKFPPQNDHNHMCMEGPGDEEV

T2: FZD5 CRD (Homo sapiens, UniProt Q13467)
T2 construct: K29-T156; GPI anchor signal (C); expressed in transfected cells; host or cells: CHO cells, lentiviral pLenti-puro
T2 sequence (Q13467 29-156): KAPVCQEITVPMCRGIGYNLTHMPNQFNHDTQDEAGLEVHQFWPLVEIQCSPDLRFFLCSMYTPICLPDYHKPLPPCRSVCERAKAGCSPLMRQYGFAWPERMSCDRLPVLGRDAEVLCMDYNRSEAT

T3: FZD3 CRD (Homo sapiens, UniProt Q9NPG1)
T3 construct: CRD of FZD1, FZD2, FZD3, FZD4, FZD5, FZD6, FZD7, FZD8, FZD9 or FZD10; GPI anchor signal (C); expressed in transfected cells; host or cells: CHO cells, lentiviral pLenti-puro
T3 sequence (Q9NPG1 23-136 limits assumed): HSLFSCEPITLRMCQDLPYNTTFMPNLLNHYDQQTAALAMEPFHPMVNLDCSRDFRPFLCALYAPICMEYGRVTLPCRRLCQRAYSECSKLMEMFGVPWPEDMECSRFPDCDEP

B1: Fab-2900: anti-FZD5 Fab with antibody variable region Fv-2900; CDR SEQ ID NOs: 35, 36, 39, 78, 115, 153 (antibody, V domains shown)
VH: EVQLVESGGGLVQPGGSLRLSCAASGFNLSSYYIHWVRQAPGKGLEWVASISSSSSSTSYADSVKGRFTISADTSKNTAYLQMNSLRAEDTAVYYCARGALDYWGQGTLVTVSS
VL: DIQMTQSPSSLSASVGDRVTITCRASQSVSSAVAWYQQKPGKAPKLLIYSASSLYSGVPSRFSGSRSGTDFTLTISSLQPEDFATYYCQQWYSGSSLFTFGQGTKVEIK
B2: Fab-2910: anti-FZD5 Fab with antibody variable region Fv-2910; CDR SEQ ID NOs: 35, 36, 49, 88, 125, 162 (antibody, V domains shown)
VH: B1 VH with L29I, S31Y, Y32S, I34M, S52Y, L101M
VL: DIQMTQSPSSLSASVGDRVTITCRASQSVSSAVAWYQQKPGKAPKLLIYSASSLYSGVPSRFSGSRSGTDFTLTISSLQPEDFATYYCQQWYGSHLITFGQGTKVEIK
B3: Fab-2929: anti-FZD5 Fab with antibody variable region Fv-2929; CDR SEQ ID NOs: 35, 36, 68, 106, 144, 162 (antibody, V domains shown)
VH: B1 VH with L29I, S31Y, S52Y, S53P, L101M
VL: B1 VL with G94S, S95Y, S96G, F98I
B4: Fab-2918: anti-FZD5 Fab with antibody variable region Fv-2918; CDR SEQ ID NOs: 35, 36, 57, 96, 133, 169 (antibody, V domains shown)
VH: EVQLVESGGGLVQPGGSLRLSCAASGFNLSYSSIHWVRQAPGKGLEWVASIYSSYSSTSYADSVKGRFTISADTSKNTAYLQMNSLRAEDTAVYYCARFGYWAIDYWGQGTLVTVSS
VL: B2 VL with W91A, Y92F, S94A, H95S, I97F
B5: Fab-2905: anti-FZD5 Fab with antibody variable region Fv-2905; CDR SEQ ID NOs: 35, 36, 44, 83, 120, 157 (antibody, V domains shown)
VH: EVQLVESGGGLVQPGGSLRLSCAASGFNLSYYYMHWVRQAPGKGLEWVASIYSSYSYTSYADSVKGRFTISADTSKNTAYLQMNSLRAEDTAVYYCARSGYALDYWGQGTLVTVSS
VL: DIQMTQSPSSLSASVGDRVTITCRASQSVSSAVAWYQQKPGKAPKLLIYSASSLYSGVPSRFSGSRSGTDFTLTISSLQPEDFATYYCQQSSWYYGYPFTFGQGTKVEIK

molecular target: T4, FZD1 CRD (Homo sapiens, UniProt Q9UP38); experiment: Immunofluorescence of anti-FZD5 Fab binding to CHO cells overexpressing Frizzled CRD; parameters: key: −: no binding; +: very weak binder; ++: weak binder; +++: good binder; ++++: very good binder
T4 construct: D112-P238; GPI anchor signal (C); expressed in transfected cells; host or cells: CHO cells, lentiviral pLenti-puro
How it was run: (§1)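 CHO panel, 10 lines, each w/ one human FZD CRD-myc-GPI (lentiviral). Anti-FZD5 Fabs applied; surface binding scored by IF, cross-checked by FACS.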

Molecule | Immunofluorescence binding, Frizzled CRD overexpressed on CHO cells: FZD1
B1 | −
B2 | −
B3 | −
B4 | −

molecular target: T1, FZD4 CRD; experiment: as above; parameters: key: −: no binding; +: very weak binder; ++: weak binder; +++: good binder; ++++: very good binder
How it was run: as §1

Molecule | Immunofluorescence binding, Frizzled CRD overexpressed on CHO cells: FZD4
B5 | −
B1 | −
B2 | −
B3 | −
B4 | −

molecular target: T2, FZD5 CRD; experiment: as above; parameters: key: −: no binding; +: very weak binder; ++: weak binder; +++: good binder; ++++: very good binder
How it was run: as §1

Molecule | Immunofluorescence binding, Frizzled CRD overexpressed on CHO cells: FZD5
B5 | +
B1 | ++++
B2 | ++++
B3 | ++++
B4 | ++++

molecular target: T3, FZD3 CRD; experiment: as above; parameters: key: −: no binding; +: very weak binder; ++: weak binder; +++: good binder; ++++: very good binder
How it was run: as §1

Molecule | Immunofluorescence binding, Frizzled CRD overexpressed on CHO cells: FZD3
B5 | −
B1 | −
B2 | −
B3 | −
B4 | −

molecular target: T5, FZD7 CRD (Homo sapiens, UniProt O75084); experiment: as above; parameters: key: −: no binding; +: very weak binder; ++: weak binder; +++: good binder; ++++: very good binder
T5 construct: D45-S169; GPI anchor signal (C); expressed in transfected cells; host or cells: CHO cells, lentiviral pLenti-puro
How it was run: as §1

Molecule | Immunofluorescence binding, Frizzled CRD overexpressed on CHO cells: FZD7
B5 | +
B1 | +
B2 | +
B3 | +
B4 | +

test system: CHO cells not expressing Frizzled CRD; experiment: Flow cytometry of anti-FZD5 Fab binding to CHO cells not expressing Frizzled CRD (background)
From the text: (§2) The binding of anti-FZD5 Fabs to cell surface-expressed Frizzled protein was further determined for each member of the Frizzled family via flow cytometry and immunofluorescence analysis of a panel of 10 CHO cell lines, each ectopically over-expressing the extracellular cysteine-rich domain (CRD) of a different Frizzled protein family member.

Molecule | Median fluorescence, Frizzled CRD overexpressed on CHO cells: None
B5 | 3.62
B1 | 3.4
B2 | 2.92
B3 | 3.19
B4 | 3.13

molecular target: T4, FZD1 CRD; experiment: Flow cytometry of anti-FZD5 Fab binding to CHO cells overexpressing Frizzled CRD
Description: (§3) Plasmids: pLCKO lentiviral vector used for knockout (TKO) library construction and expression of individual gRNAs was constructed as described previously (Hart et al., 2015). Briefly, single guide RNA (sgRNA) scaffold was amplified from px330 (Addgene 42230) and cloned into pLKO.TRC005 lentiviral vector (Broad Institute, Cambridge, Mass.) using AgeI/EcoRI restriction sites. BfuAI sites were added at the 5′ end of the sgRNA scaffold for cloning the TKO library or individual gRNA target sequences. Lenti Cas9-2A-BsdR vector used to generate Cas9 stable expression cell lines was constructed as described previously (Hart et al., 2015). Briefly, lentiCRISPR pXPR_001 (Addgene 49535) was modified through removal of the sgRNA scaffold region through NdeI/EcoRI digest and blunt ends generation using Large Klenow Fragment (NEB). 2A-puro was replaced with 2A-BsdR by PCR using the NheI/MluI sites. Each of the 10 human Frizzled cysteine rich domains (CRDs) were cloned into the lentiviral expression plasmid pLenti-puro in the following cassette: FZD_CRD-MYC-GPI.
(§4) Flow cytometry: Primary staining of cells was performed by treatment with 200 nM Frizzled profiler Fab. Alexa Fluor 488 AffiniPure F(ab′)2 was used as the secondary antibody (Jackson ImmunoResearch #109-546-097). c-Myc (9E10) IgG1 (primary antibody, Santa Cruz, lot #D0306) and Alexa Fluor 488 IgG (secondary antibody, Life technologies, lot #1458649) were used as controls. Dead cells were excluded by staining with Fixable Viability Dye eFluor 660 (eBioscience, catalogue number 65-0864). All reagents were used as per manufacturer's instructions. Flow cytometry was performed on a BD FACSCanto II flow cytometer (BD Biosciences), and data were analyzed with FlowJo software (FlowJo, LLC).
(§5) To confirm that the FZD5-WNT7B circuit is not driven simply by expression and rule out the possibility of a disconnect between RNA and protein levels for the Wnt receptors in HPAF-II cells, a panel of recombinant Fabs were generated, alternatively referred to herein as ‘Frizzled profiler’, that can detect and discriminate all but one of the ten Frizzled receptors. […] To characterize the binding specificity of these Fabs on cells, a panel of 10 CHO cell lines was generated, each expressing the CRD domain of a different myc-tagged Frizzled family member anchored at the plasma membrane through a GPI anchor (CHO-myc-FZDGPI). Despite the high sequence identity between Frizzled family members (FIG. 7A, FIG. 7B), selective Fabs were identified for FZD4, FZD5, FZD6 and FZD10 as assessed by immunofluorescence and flow cytometry (FIG. 7D and FIG. 8). […] The FZD8 CRD is most homologous to that of FZD5 (FIG. 7B). These Fabs can be used to discriminate expression of FZD1, FZD2, FZD4, FZD5, FZD6, FZD7, FZD8, FZD9 and FZD10 (FIG. 7D and FIG. 8). The ‘Frizzled profiler’ therefore consists of 10 different Fabs that can be used to discriminate expression of 9 different Frizzled family members. The Frizzled profiler was then used to confirm that HPAF-II cells express FZD1, FZD5, FZD6 and possibly FZD8 (FIG. 7E).
as §2

Molecule | Median fluorescence, Frizzled CRD overexpressed on CHO cells: FZD1
B5 | 3.75
B1 | 31.06
B2 | 6.67
B3 | 7.64
B4 | 11.97

molecular target: T6, FZD2 CRD (Homo sapiens, UniProt Q14332); experiment: as above
T6 construct: D35-P161; GPI anchor signal (C); expressed in transfected cells; host or cells: CHO cells, lentiviral pLenti-puro
Description: as §3, §4, §5, §2

Molecule | Median fluorescence, Frizzled CRD overexpressed on CHO cells: FZD2
B5 | 5.09
B1 | 6.15
